Target: peptide substrate shown in FIG. 9a (Protease K substrate)

B1: Protease K (protein)
chain: AAQTNAPWGLARISSTSPGTSTYYYDESAGQGSCVYVIDTGIEASHPEFEGRAQMVKTYYYSSRDGNGHGTHCAGTVGSRTYGVAKKTQLFGVKVLDDNGSGQYSTIIAGMDFVASDKNNRNCPKGVVASLSLGGGYSSSVNSAAARLQSSGVMVAVAAGNNNADARNYSPASEPSVCTVGASDRYDRRSSFSNYGSVLDIFGPGTSILSTWIGGSTRSISGTSMATPHVAGLAAYLMTLGKTTAASACRYIADTANKGDLSNIPFGTVNLLAYNNYQA
ratio of the absorption at 700 nm/520 nm (750 nM peptide, Protease K up to 300 pM, 60 min, 20 C): With increasing amounts of protease K the spectrum shifts back toward the native spectrum seen in the gold nanoparticles alone and the ratio falls to nearly 0

Source: US20170226560
